{
  "source": "patent US20240316102A1",
  "target": "CD38 on expanded NK cells (g-NK or cNK) (human) (UniProt P28907)",
  "test": "cell-based or functional assay",
  "data": [
    {"substance": "daratumumab (antibody)", "values": [
      {"measurement": "daratumumab-induced fratricide of expanded NK cells (4 h, 1 µg/mL, PI staining, 3-color flow cytometry) (times lower (g-NK versus cNK))", "result": 13}
    ]}
  ]
}
